From PMC5677083, “Characterization of ApoJ-reconstituted high-density lipoprotein (rHDL) nanodisc for the potential treatment of cerebral β-amyloidosis” (Scientific Reports, 2017)

Molecular target: the molecule itself
Assay: SEC; purified rApoJ on a size exclusion column; wide peak at 12-16 ml and a homogeneous peak at 16-18 ml (maximum 16.5 ml) of the elution volume; column and buffer are in the Supplementary Information

B1: recombinant human ApoJ (rApoJ), free (non-lipidated) (natural protein)
chain 1: DQTVSDNELQEMSNQGSKYVNKEIQNAVNGVKQIKTLIEKTNEERKTLLSNLEEAKKKKEDALNETRESETKLKELPGVCNETMMALWEECKPCLKQTCMKFYARVCRSGSGLVGRQLEEFLNQSSPFYFWMNGDRIDSLLENDRQQTHMLDVMQDHFSRASSIIDELFQDRFFTREPQDTYHYLPFSLPHRRPHFFFPKSRIVR
chain 2: SLMPFSPYEPLNFHAMFQPFLEMIHEAQQAMDIHFHSPAFQHPPTEFIREGDDDRTVCREIRHNSTGCLRMKDQCDKCREILSVDCSTNNPSQAKLRRELDESLQVAERLTRKYNELLKSYQWKMLNTSSLLEQLNEQFNWVSRLANLTQGEDQYYLRVTTVASHTSDSDVPSGVTEVVVKLFDSDPITVTVPVEVSRKNPKFMETVAEKALQEYRKKHREE
notes: apolipoprotein J (clusterin), human, beta chain: cut product of the precursor, disulfide-bonded to the alpha chain; apolipoprotein J (clusterin), human, alpha chain: cut product of the precursor, disulfide-bonded to the beta chain; Heterodimer of alpha and beta chains (about 40 kDa each, about 77 kDa non-reduced); They are written on the alpha chain on the surmise that they sit at the C-terminus …
- binding result: binds
